From patent US20100260763A1 (DOMANTIS, published 2010)
Each block holds one binder with its values, some of them ahead of it.

Legend:
[1] = target: the molecule itself; test: analytical ultracentrifugation, sedimentation velocity; monomer/dimer self-association
[2] = target: the molecule itself; test: analytical ultracentrifugation, sedimentation equilibrium; monomer/dimer self-association
[3] = target: T1, TNFR1-FC fusion (human, UniProt P19438 30-211, limits assumed); test: TNFR1 receptor binding assay: TNFR1-Fc on beads, TNF-alpha 10 ng/ml, ABI 8200; average of 3 experiments
T1 construct: not shown: Fc part, captured by goat anti-human IgG; not described further
T1 sequence (looked up): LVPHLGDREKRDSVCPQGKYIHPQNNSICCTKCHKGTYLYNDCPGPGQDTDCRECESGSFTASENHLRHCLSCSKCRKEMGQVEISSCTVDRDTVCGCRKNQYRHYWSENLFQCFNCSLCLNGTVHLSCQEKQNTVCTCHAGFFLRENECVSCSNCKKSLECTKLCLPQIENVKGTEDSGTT

[4] = target: T2, human TNFR1, soluble recombinant protein (human, UniProt P19438 22-211, limits assumed, biotinylated in the BIAcore assays (coupling via primary amines)); test: BIAcore 3000, dAb over biotinylated human TNFR1 (1400 RU) on SA chip, 1:1 fit, 25 C, mean of 3 experiments
T2 construct: also called biotinylated TNFR1; human recombinant E. coli-expressed human TNFR1
T2 sequence (looked up): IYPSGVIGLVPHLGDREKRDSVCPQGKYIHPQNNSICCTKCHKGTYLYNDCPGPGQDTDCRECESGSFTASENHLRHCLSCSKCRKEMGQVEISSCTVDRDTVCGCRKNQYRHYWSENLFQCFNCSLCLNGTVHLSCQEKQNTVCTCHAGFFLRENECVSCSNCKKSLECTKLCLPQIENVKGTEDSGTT

[5] = target: T1, TNFR1-FC fusion; test: TNFR-1 receptor binding assay (RBA): inhibition of the binding of TNF-alpha to TNFR1 by the dAb; T0 sample
[6] = target: T1, TNFR1-FC fusion; test: TNFR-1 receptor binding assay (RBA): inhibition of the binding of TNF-alpha to TNFR1 by the dAb; sample after 14 days at 50 C in Britton-Robinson buffer, concentration assumed to be 1 mg/ml
[7] = target: T3, TNFR1 on MRC-5 cells (UniProt P19438 30-455, limits assumed); test: cell-based or functional assay
T3 sequence (looked up): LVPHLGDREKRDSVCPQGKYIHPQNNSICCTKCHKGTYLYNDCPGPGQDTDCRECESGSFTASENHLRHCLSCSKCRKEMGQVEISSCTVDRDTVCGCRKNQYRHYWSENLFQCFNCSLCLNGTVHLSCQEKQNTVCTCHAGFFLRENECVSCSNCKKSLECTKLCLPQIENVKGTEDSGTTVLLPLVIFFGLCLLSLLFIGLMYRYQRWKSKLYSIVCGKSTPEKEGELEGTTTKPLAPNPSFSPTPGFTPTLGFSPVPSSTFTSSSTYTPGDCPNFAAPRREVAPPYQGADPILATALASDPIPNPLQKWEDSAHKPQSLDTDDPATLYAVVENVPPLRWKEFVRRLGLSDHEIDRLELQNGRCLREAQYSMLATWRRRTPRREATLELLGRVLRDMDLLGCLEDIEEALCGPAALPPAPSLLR

[8] = target: T1, TNFR1-FC fusion; test: human TNFR1 receptor binding assay; dAb blocks binding of TNF-alpha (10 ng/ml) to bead-captured TNFR1-Fc; four replicates
[9] = target: the molecule itself; test: analytical ultracentrifugation, sedimentation equilibrium; monomer/dimer self-association; self-association (monomer to dimer) of the dAb by AUC sedimentation equilibrium, 0.5 mg/ml to 5 mg/ml
[10] = target: the molecule itself; test: analytical ultracentrifugation, sedimentation equilibrium; self-association
[11] = target: T4, recombinant human VEGF (human, UniProt P15692-4 27-191, limits assumed, biotinylated in the selections, phage ELISA and BIAcore screening); test: BIAcore kinetics
T4 construct: also called hVEGF; VEGFA

[12] = target: T4, recombinant human VEGF; test: receptor binding assay
[13] = target: T4, recombinant human VEGF; test: RBA assay; taken as the Fc fusion of the row
[14] = target: T5, IL-1R1 (UniProt P14778 18-332, limits assumed); test: Receptor Binding Assay, inhibition of IL-1 binding to IL-R1
T5 construct: also called IL-R1
T5 sequence (looked up): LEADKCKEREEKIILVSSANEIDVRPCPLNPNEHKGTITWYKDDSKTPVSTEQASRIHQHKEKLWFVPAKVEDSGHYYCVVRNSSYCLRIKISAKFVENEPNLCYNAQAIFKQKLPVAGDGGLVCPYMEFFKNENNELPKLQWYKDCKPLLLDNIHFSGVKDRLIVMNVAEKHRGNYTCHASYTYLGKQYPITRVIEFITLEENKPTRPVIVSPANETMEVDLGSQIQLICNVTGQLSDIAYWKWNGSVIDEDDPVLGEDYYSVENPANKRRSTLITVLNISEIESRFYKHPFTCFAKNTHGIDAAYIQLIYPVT

T4 sequence (P15692 other isoform, or with tags, fused parts or gaps limits assumed): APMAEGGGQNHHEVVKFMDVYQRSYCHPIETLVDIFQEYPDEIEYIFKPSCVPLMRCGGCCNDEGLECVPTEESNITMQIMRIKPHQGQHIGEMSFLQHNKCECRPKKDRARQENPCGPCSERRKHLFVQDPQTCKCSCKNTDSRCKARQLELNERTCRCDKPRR

B1: DOM1h-131-202 (other)
VH: EVQLLESGGGLVQPGGSLRLSCAASGFTFAHETMVWVRQAPGKGLEWVSHIPPDGQDPFYADSVKGRFTISRDNSKNTLYLQMNSLRAEDTAVYYCALLPKRGPWFDYWGQGTLVTVSS
notes: human VH dAb against TNFR1; also called GSK1922567A
Kd [1]: 1000 nM | Kd [2]: 1300 nM | EC50 [3]: 0.11 nM | Kd [4]: 0.55 nM | IC50 (read off the curve) [5]: ~0.1 nM | IC50 (read off the curve) [6]: ~0.1 nM

B6: DOM15-10 (other)
VL: DIQMTQSPSSLSASVGDRVTITCRASQWIGPELSWYQQKPGKAPKLLIYHTSILQSGVPSRFSGSGSGTDFTLTISSLQPEDFATYYCQQYMFQPRTFGQGTKVEIRR
notes: VK dAb against VEGF
Kd [11]: 23.6 nM | EC50 [12]: 10.2 nM

B7: DMS1531 (Fc fusion)
VL: DIQMTQSPSSLSASVGDRVTITCRASQWIGPELRWYQQKPGKAPKLLIYHTSILQSGVPSRFSGSGSGTDFTLTISSLQPEDFATYYCQQYMFQPMTFGQGTKVEIRG
modifications: disulfide-linked homodimer of this chain (bivalent dAb-Fc)
notes: dAb-Fc; also called DOM15-10-11 Fc fusion; not shown: TVAAPS linker and human IgG1 Fc
Activity (nM), RBA assay [13]: 0.577 nM

B9: DMS1546 (Fc fusion)
VL: DIQMTQSPSSLSASVGDRVTITCRASQWIGPELSWYQQKPGKAPKLLIYHTSILQSGVPSRFSGSGSGTDFTLTISSLQPEDFATYYCQQYMFQPRTFGQGTKVEIRR
modifications: disulfide-linked homodimer of this chain (bivalent dAb-Fc)
notes: dAb-Fc; also called DOM15-10 Fc fusion; not shown: TVAAPS linker and human IgG1 Fc
Activity (nM), RBA assay [13]: 0.913 nM

B10: DOM4-130-54 (other)
VL: DIQMTQSPSSLSASVGDRVTITCRASQDIYLNLDWYQQKPGKAPKLLINFGSELQSGVPSRFSGSGYGTDFTLTISSLQPEDFATYYCQPSFYFPYTFGQGTKVEIKR
notes: VK domain antibody (dAb) against IL-1R1
IC50 [14]: 0.28 nM

The next lines start with results.

ND50 nM, MRC-5 cell-based assay (230307CE) [7]: 2.28 nM
B2: DOM1h-131-203 (other)
VH: EVQLWESGGGLVQPGGSLRLSCAASGFTFAHETMVWVRQAPGKGLEWVSHIPPDGQDPFYADSVKGRFTISRDNSKNTLYLQMNSLRAEDTAVYYCALLPKRGPWIDYWGQGTLVTVSS

ND50 nM, MRC-5 cell-based assay (230307CE) [7]: 1.89 nM
B3: DOM1h-131-204 (other)
VH: EVQLSESGGGLVQPGGSLRLSCAASGFTFAHETMVWVRQAPGKGLEWVSHIPPDGQDPFYADSVKGRFTISRDNSKNTLYLQMNSLRAEDTAVYYCALLPNRGPWFDYWGQGTLVTVSS

ND50 nM, MRC-5 cell-based assay (230307CE) [7]: 0.71 nM | EC50 [3]: 0.07 nM | Kd [4]: 0.47 nM | IC50 (read off the curve) [8]: ~0.07 nM
B4: DOM1h-131-206 (other)
VH: EVQLLESGGGLVQPGGSLRLSCAASGFTFAHETMVWVRQAPGKGLEWVSHIPPDGQDPFYADSVKGRFTISRDNSKNTLYLQMNSLRAEDTAVYHCALLPKRGPWFDYWGQGTLVTVSS
notes: human VH dAb against TNFR1; also called GSK1995057A
Kd [9]: 360 µM

ND50 nM, MRC-5 cell-based assay (230307CE) [7]: 1.89 nM | EC50 [3]: 0.19 nM | Kd [4]: 1.07 nM | IC50 (read off the curve) [8]: ~0.2 nM
B5: DOM1h-131-511 (other)
VH: EVQLLESGGGLVQPGGSLRLSCAASGFTFAHETMVWVRQAPGKGLEWVSHIPPVGQDPFYADSVKGRFTISRDNSKNTLYLQMNSLRAEDTAVYYCALLPKRGPWFDYWGQGTLVTVSS
notes: human VH domain antibody (dAb) against TNFR1; also called GSK1995056A
binding result [10]: binds

Kd [11]: 14.6 nM | EC50 [12]: 3.58 nM
B8: DOM15-10-11 (other)
VL: DIQMTQSPSSLSASVGDRVTITCRASQWIGPELRWYQQKPGKAPKLLIYHTSILQSGVPSRFSGSGSGTDFTLTISSLQPEDFATYYCQQYMFQPMTFGQGTKVEIRG
notes: VK dAb against VEGF, trypsin-selected variant of DOM15-10

IC50 [14]: 0.257 nM
B11: DOM4-130-201 (other)
VL: DIQMTQSPSSLSASVGDRVTITCRASQDIYLNLDWYQQKPGKAPKLLIKFGSELQSGVPSRFSGSGYGTDFTLTISNLQPEDFATYYCQPSFYFPYTFGQGTKVEIKW
notes: VK dAb against IL-1R1, trypsin-selected variant of DOM4-130-54

IC50 [14]: 0.254 nM
B12: DOM4-130-202 (other)
VL: DIQMTQSPSSLSASVGDRVTISCRASQDIYLNLDWYQQKPGKAPKLLISFGSELQSGVPSRFSGSGYGTDFTLTISSLQPEDSATYYCQPSFYYPYTFGQGTKVEIKR
notes: as for B11
